Literature values in publication PMC11045845 (Nature Communications, 2024).
No end group written: not given here.

Key:
[1] = literature values for comparison
Protocol: Upon increasing the lipid concentration, the intensity at the emission maximum increased and the position of the maximum was blue-shifted to lower wavelengths. A maximum blue shift of (18 ± 2) nm in the presence of 2 mM POPC was determined (Fig. 2a, blue curve, Fig. 2b), accompanied by an increase in the maximum fluorescence intensity (Fig. 2a, c). The observed blue shift indicates the partitioning of the L-trypt ...

[2] = glycerylmonooleate BLMs
Excerpt: For further support, single-channel proton conductance measurements would be desirable but cannot be performed at physiological conditions owing to orders of magnitudes too small proton concentrations.

Substance | blue shift [1] | single-channel conductance GK+ [2]
cecropin A (KWKLFKKIEKVGQNIRDGIIKAGPAVAVVGQATQIAK; ends and bridges not checked; UniProt P01507 27-63, looked up) [antimicrobial peptide] | 15 nm | 
gramicidin A |  | ≈ 29 pS
melittin | around 20 nm | 
